{
  "source": "paper PMC2148462",
  "key": {"[1]": {"target": "MBS (myosin-binding subunit of myosin phosphatase), endogenous in MDCK cells (dog (endogenous in MDCK))", "assay": "co-IP"}, "[2]": {"target": "GST-moesin (1–323 aa) (human) (UniProt P26038)", "sequence (P26038 1-323)": "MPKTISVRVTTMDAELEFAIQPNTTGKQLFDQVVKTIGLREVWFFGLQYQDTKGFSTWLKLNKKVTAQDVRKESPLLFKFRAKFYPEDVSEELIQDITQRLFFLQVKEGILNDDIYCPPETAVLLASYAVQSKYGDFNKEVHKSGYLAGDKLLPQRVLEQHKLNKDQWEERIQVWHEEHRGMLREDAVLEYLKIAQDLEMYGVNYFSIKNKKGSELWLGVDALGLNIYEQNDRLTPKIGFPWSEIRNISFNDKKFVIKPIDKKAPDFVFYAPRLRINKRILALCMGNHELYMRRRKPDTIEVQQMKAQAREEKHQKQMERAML", "assay": "pull-down"}, "[3]": {"target": "HA-full-length moesin (1–577 aa) (mouse) (UniProt P26041)", "sequence (P26041 whole entry, the tested form may be a part)": "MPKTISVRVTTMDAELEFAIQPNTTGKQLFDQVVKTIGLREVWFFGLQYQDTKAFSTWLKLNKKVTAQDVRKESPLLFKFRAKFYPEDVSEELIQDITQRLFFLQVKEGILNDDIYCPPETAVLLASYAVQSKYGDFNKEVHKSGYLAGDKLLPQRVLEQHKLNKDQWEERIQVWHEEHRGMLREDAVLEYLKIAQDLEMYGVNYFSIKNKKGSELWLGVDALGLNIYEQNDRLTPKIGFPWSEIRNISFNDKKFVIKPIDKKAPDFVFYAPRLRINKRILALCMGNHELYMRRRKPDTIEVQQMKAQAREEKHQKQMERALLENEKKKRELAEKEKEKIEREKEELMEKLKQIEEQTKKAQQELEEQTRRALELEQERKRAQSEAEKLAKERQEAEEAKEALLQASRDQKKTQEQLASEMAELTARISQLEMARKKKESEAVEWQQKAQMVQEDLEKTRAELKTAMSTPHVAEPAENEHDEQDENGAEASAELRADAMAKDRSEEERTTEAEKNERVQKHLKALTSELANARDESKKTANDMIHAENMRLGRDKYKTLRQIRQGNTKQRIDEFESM", "assay": "pull-down"}},
  "data": [
    {"substance": "moesin, endogenous in MDCK cells (natural protein)", "values": [
      {"measurement": "percent of total moesin recovered with immunoprecipitated MBS", "setting": "[1]", "result": 0.5, "unit": "%"},
      {"measurement": "stoichiometry N (moesin per MBS)", "setting": "[1]", "result": 0.33}
    ]},
    {"substance": "recombinant full-length rat MBS (1–976 aa), myosin-binding subunit of myosin phosphatase (natural protein)", "values": [
      {"measurement": "Kd", "setting": "[2]", "result": 0.26, "unit": "µM"},
      {"measurement": "stoichiometry N", "setting": "[2]", "result": 0.4},
      {"measurement": "Kd", "setting": "[3]", "result": 1.23, "unit": "µM"}
    ]}
  ]
}
